{
  "source": "patent US20200325230A1",
  "about": "(CURIA IP, published 2020)",
  "binders": {"B1": {"name": "anti-BTLA antibody 13-F7A (antibody, V domains shown)", "VH": "EVQLLESGGGLVQPGGSLRLSCAASGFTSSSYGMSWVRQAPGKGLEWVSGISGSGGGTYYADSVKGRFTISRDNSKNTLYLQMNSLRAEDTAVYYCAKGDYYGSGSYPLFDYWGQGTLVTVSS", "VL": "AIQLTQSPSSLSASVGDRVTITCRASQDISSALAWYQQKPGKAPKLLISDASSLESGVPSRFSGSGSGTDFTLTISSLQPEDFATFYCQQFNNYPPTFGPGTKVDIK"}, "B2": {"name": "anti-BTLA antibody 12-I8A (antibody, V domains shown)", "VH": "QVQLVESGGGVVQPGRSLRLSCAASGFTFSNYGMHWVRQAPGKGLEWVAVIWYNGSNKYYADSVKGRFTISRDNSKNTLYLQMNSLRAEDTAVYYCARDDVVRYFDWPLDYWGQGTLVTVSS", "VL": "AIQMTQSPSSLSASVGDRVTITCRASQGIRNDLGWYQQKPGKAPKVLIYAASSLQSGVPSRFSGSGSGTDFTLTISSLQPEDFATYYCLQDYNYPWTFGQGTKVEIK", "notes": "also called 12-IBA"}, "B3": {"name": "anti-BTLA antibody 16-I20A (antibody, V domains shown)", "VH": "QVQLQESGPGLVKPSETLSLTCTVSGGSISYYYWSWIRQPPGTGLEWIGYIYYSGSTKYNPSLKRRVTISVDTSKNQFSLKLSSVTAADTAVYYCARIRGDSYGWDFDYWGQGTLVTVSS", "VL": "EIVMTQSPATLSLSPGERATLSCRASQSISNNYLFWYQQKPGQAPRLLIYGASTRATGIPARFSGSGSGTDFTLTISSLQPEDFAVYYCQQDYNFPLTFGGGTKVEIK", "notes": "also called 16420A"}, "B4": {"name": "anti-BTLA antibody 16-H16A (antibody, V domains shown)", "VH": "QLQLQESGPGLVKPSETLSLTCTVSGDSISSSGYYWGWIRQPPGKGLEWIGSIYYSGSTHYNPSLKSRVTISVDSSKSQFSLKLSSVTAADTAVYCCARHKVDSSGWPLDYWGQGTLVTVSS", "VL": "B3 VL with N31S, N32S, Y33C, F35S, G51D, A52T, F95L"}, "B5": {"name": "anti-BTLA antibody 8-M23A (antibody, V domains shown)", "VH": "QVQLQESGPGLVKPSETLSLTCTVSGGSISSYYWSWIRQPPGKGLEWIGYIYYSGSTNYNPSLKSRITISVDTSKNQFSLKLSSVTAADTAVYYCARVILYSSGWSFDYWGQGTLVTVSS", "VL": "B3 VL with I29V, N31S, N32S, F35S, F95L"}},
  "note": "Positions count from the first letter of the chain named. Numbers in names are those of the source.",
  "data": [
    {"biological_target": "T1, human BTLA(ECD)-HIS (human, UniProt Q7Z6A9 31-157)", "T1 construct": "extracellular domain; also called recombinant BTLA; not shown: HIS tag", "experiment": "ELISA, coated BTLA(ECD)-HIS, chemiluminescence (RLU)", "units": {"EC50": "nM"}, "values": [
      {"binder": "B1", "EC50": 1},
      {"binder": "B2", "EC50": 1.4},
      {"binder": "B3", "EC50": 0.7},
      {"binder": "B4", "EC50": 0.9},
      {"binder": "B5", "EC50": 0.8}
    ]},
    {"biological_target": "T2, cynomolgus BTLA(ECD)-HIS (cynomolgus, UniProt A0A2K5W7M7 31-157)", "T2 construct": "extracellular domain; also called Cyno BTLA; not shown: HIS tag", "T2 sequence (A0A2K5W7M7 entry or part of it)": "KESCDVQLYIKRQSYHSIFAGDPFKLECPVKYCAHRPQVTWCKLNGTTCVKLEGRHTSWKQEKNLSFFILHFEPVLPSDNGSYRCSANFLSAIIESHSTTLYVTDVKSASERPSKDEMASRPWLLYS", "experiment": "ELISA, coated BTLA(ECD)-HIS, chemiluminescence (RLU)", "units": {"EC50": "nM"}, "values": [
      {"binder": "B1", "EC50": 1},
      {"binder": "B2", "EC50": 4.2},
      {"binder": "B3", "EC50": 0.8},
      {"binder": "B4", "EC50": 1.9}
    ]},
    {"biological_target": "T3, human BTLA expressed on HEK-293 cells (human, UniProt Q7Z6A9 31-289)", "T3 construct": "whole, on cells", "experiment": "flow cytometry on HEK 293 cells expressing BTLA (MFI)", "units": {"EC50": "nM"}, "values": [
      {"binder": "B1", "EC50": 1.5},
      {"binder": "B2", "EC50": 2.9},
      {"binder": "B3", "EC50": 5},
      {"binder": "B4", "EC50": 4.7}
    ]},
    {"biological_target": "T4, cynomolgus BTLA expressed on HEK-293 cells (cynomolgus, UniProt A0A2K5W7M7 31-289)", "T4 construct": "whole, on cells; also called Cyno BTLA", "T4 sequence (A0A2K5W7M7 entry or part of it)": "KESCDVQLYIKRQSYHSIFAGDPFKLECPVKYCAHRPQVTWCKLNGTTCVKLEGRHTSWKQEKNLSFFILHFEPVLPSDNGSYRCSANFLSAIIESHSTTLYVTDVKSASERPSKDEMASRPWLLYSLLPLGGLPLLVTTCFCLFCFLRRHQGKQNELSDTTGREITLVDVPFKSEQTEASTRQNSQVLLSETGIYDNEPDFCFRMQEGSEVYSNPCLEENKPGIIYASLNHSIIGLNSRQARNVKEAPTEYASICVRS", "experiment": "flow cytometry on HEK 293 cells expressing BTLA (MFI)", "units": {"EC50": "nM"}, "values": [
      {"binder": "B1", "EC50": 2.6},
      {"binder": "B2", "EC50": 5},
      {"binder": "B3", "EC50": 6.9},
      {"binder": "B4", "EC50": 4.4}
    ]},
    {"biological_target": "T5, human BTLA-human Fc (human, UniProt Q7Z6A9 31-157)", "T5 construct": "not shown: human Fc", "experiment": "ELISA, inhibition of BTLA-human Fc binding to coated human HVEM-ratIgG2a", "units": {"IC50": "nM"}, "values": [
      {"binder": "B1", "IC50": 2.5},
      {"binder": "B2", "IC50": 4.4},
      {"binder": "B3", "IC50": 2.9},
      {"binder": "B4", "IC50": 3}
    ]},
    {"biological_target": "T6, cynoBTLA-human Fc (cynomolgus, UniProt A0A2K5W7M7 31-157)", "T6 construct": "also called cynomolgus BTLA; not shown: human Fc", "experiment": "ELISA, inhibition of cynoBTLA-human Fc binding to coated human HVEM-ratIgG2a", "units": {"IC50": "nM"}, "values": [
      {"binder": "B1", "IC50": 1.8},
      {"binder": "B2", "IC50": 4.6},
      {"binder": "B3", "IC50": 2.5},
      {"binder": "B4", "IC50": 2.3}
    ]},
    {"biological_target": "recombinant human BTLA (human, UniProt Q7Z6A9 31-157, limits assumed)", "experiment": "Bio-Layer Interferometry (Octet), antibody captured by anti-human-Fc (AHC), BTLA in solution, 1:1 fit", "units": {"Kd": "nM"}, "values": [
      {"binder": "B1", "Kd": 5.4},
      {"binder": "B2", "Kd": 25.2},
      {"binder": "B3", "Kd": 14.9},
      {"binder": "B4", "Kd": 13.9}
    ]},
    {"biological_target": "T7, cynomolgus BTLA (analyte of Bio-Layer Interferometry) (cynomolgus, UniProt A0A2K5W7M7 31-157)", "T7 construct": "also called Cyno BTLA", "experiment": "Bio-Layer Interferometry (Octet), antibody captured by anti-human-Fc (AHC), BTLA in solution, 1:1 fit", "units": {"Kd": "nM"}, "values": [
      {"binder": "B1", "Kd": 3.9},
      {"binder": "B2", "Kd": 23.2},
      {"binder": "B3", "Kd": 16.6},
      {"binder": "B4", "Kd": 4.1}
    ]}
  ]
}
